The supplement of paper PMC9170038

Assays:
[1] = system: MS2 coat protein; test: apparent KD of MS2 coat protein; designed switch direction (-1 OFF switch, 1 ON switch): 1; higher = weaker reporter binding
How it was run: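 For each design, the apparent KD is the median over clusters of curves fitted to normalised cluster fluorescence. Clusters held RNA switches with common flanks, transcribed on Illumina chips by stalled E. coli RNA polymerase. These were titrated with SNAP-549-labelled MS2 coat protein, doubling from 0.7 or 1.5 nM to 3 µM, without input, with 200 uM small-molecule ligand, or with an oligonucleotide input.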

[2] = system: MS2 coat protein; test: apparent KD of MS2 coat protein; higher = weaker reporter binding; details: Eterna round: R107
How it was run: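 Illumina sequencing clusters were used for on-chip transcription of designed RNA switches. Titration with SNAP-549-labelled MS2 coat protein followed, in twofold steps from 0.7 or 1.5 nM to 3 µM in 100 mM Tris-HCl pH 7.5, 80 mM KCl, 4 mM MgCl2, without or with constant ligand. Apparent KD is each design's median of fits to normalised cluster binding curves.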

[3] = input ligand: microRNA oligo, concentration not stated
[4] = Eterna round: R95, input ligand: FMN 200 uM
[5] = Eterna round: R95, input ligand: microRNA oligo, concentration not stated
[6] = Eterna round: R95, input ligand: none
[7] = input ligand: theophylline 20 uM
[8] = input ligand: tryptophan 2.4 mM
[9] = input ligand: theophylline 2 mM

For “GCGAGCGUACUUGCUACAUGAGGAUCACCCAUGUUUAUUGGACAGGAUAUGGUACCGUUUCGGUACCAGAAGGGUUCAUCAUGU [JL SSNG3 3.70] (Eterna round: R96, puzzle: Same State NG 3)”, the “apparent KD of MS2 coat protein” value ([1]; input ligand: FMN 200 uM) was 0.294 µM, the “apparent KD of MS2 coat protein” value [1, 3] was 0.471 µM and the “apparent KD of MS2 coat protein” value ([1]; input ligand: none) was 0.547 µM.

For “UGUUGUAUUACAGGAUAUCUAGUAUUGUUAUUUAGAGAAGGGUAUUCACAUGAGGAUCACCCAUGUAUAUACGAGGAAGUUGUG [JMF's solution 40] (Eterna round: R96, puzzle: Same State NG 1)”, the “apparent KD of MS2 coat protein” value [1, 3] was 0.0288 µM.

For “GAGGGCGAAAGCAACAUGAGGAUCACCCAUGUCCUCGGAGGGCAGGAUAUCCGGCGGUAGCCGAAGGAGAAGGGUCGGUAAACC [AK SSNG3-V2-33] (Eterna round: R96, puzzle: Same State NG 3)”, the “apparent KD of MS2 coat protein” value ([1]; input ligand: FMN 200 uM) was 0.258 µM, the “apparent KD of MS2 coat protein” value [1, 3] was 0.214 µM and the “apparent KD of MS2 coat protein” value ([1]; input ligand: none) was 0.184 µM.

In the case of “AACCCAGUGGAAGGAUAUGGCACCUUAUUGGUGCCAGAAGGUCCUAACAUGAGGAUCACCCAUGUGGGCCGGUCGAAAGACCGG [Fiskers NG1ss - 10] (Eterna round: R96, puzzle: Same State NG 1)”, the “apparent KD of MS2 coat protein” value ([1]; input ligand: FMN 200 uM) is reported as 0.101 µM, the “apparent KD of MS2 coat protein” value [1, 3] is reported as 0.242 µM and the “apparent KD of MS2 coat protein” value ([1]; input ligand: none) is reported as 0.338 µM.

For “GGUCGGACUCACAUGAGGAUCACCCAUGUUGCGGAAACGCCACAGGAUAUCUGUCCGAAAAGGUCAGAGAAGGGUGAACCGACC [Fiskers NG3ss - 63] (Eterna round: R96, puzzle: Same State NG 3)”, the “apparent KD of MS2 coat protein” value ([1]; input ligand: FMN 200 uM) was 1.46 µM, the “apparent KD of MS2 coat protein” value [1, 3] was 0.0358 µM and the “apparent KD of MS2 coat protein” value ([1]; input ligand: none) was 0.214 µM.

“AGAUGUUAAUUAGGAUAUGGUCACAUGAGGAUCACCCAUGUAACGAUGAUACGAUGUGGUCAAGACUAGAAGGGAUCGCUAACA [SameState NG2 #72] (Eterna round: R96, puzzle: Same State NG 2)” was tested, and the “apparent KD of MS2 coat protein” value ([1]; input ligand: FMN 200 uM) was 0.204 µM, the “apparent KD of MS2 coat protein” value [1, 3] was 0.0864 µM and the “apparent KD of MS2 coat protein” value ([1]; input ligand: none) was 0.155 µM.

With “GAAAGGCCUACAGGAUAUACCACAGUCUUGUCGGUAGAAGGGUGGGACAUGAGGAUCACCCAUGUACACUCCCAGAUGGGAGUG [Ergeesis] (Eterna round: R96, puzzle: Same State NG 1)” the “apparent KD of MS2 coat protein” value ([1]; input ligand: FMN 200 uM) was 0.767 µM, the “apparent KD of MS2 coat protein” value [1, 3] was 0.135 µM and the “apparent KD of MS2 coat protein” value ([1]; input ligand: none) was 0.476 µM.

In the case of “AUUAAACAUGAGGAUCACCCAUGUCAACAAAGUCGAGGAUAUGGGCAAAUAAAAUAUGAACCAGAAGGCGAAUAAU [salish99_ss1_r3_064] (puzzle: Same State 1)”, the “apparent KD of MS2 coat protein” value [1, 4] is reported as 0.0321 µM, the “apparent KD of MS2 coat protein” value [1, 5] is reported as 0.22 µM and the “apparent KD of MS2 coat protein” value [1, 6] is reported as 0.412 µM.

In the case of “AGUCCAGCCUGAGCUGGACUGAAGCAUGUACAUGAGGAUCACCCAUGUUCAUGUACAGGCUUUUUGCUCGUCUUAUG [JL-shm-2.02 JL mod] (puzzle: Sensor for hsa-mir-208a)”, the “apparent KD of MS2 coat protein” value [1, 4] is reported as 0.842 µM, the “apparent KD of MS2 coat protein” value [1, 5] is reported as 0.0182 µM and the “apparent KD of MS2 coat protein” value [1, 6] is reported as 0.879 µM.

For “UUGCUCGUGUGAGGAUAUGCCGCCGUUUCGGCUGCAGAAGGUACUCUGUUACAUGAGGAUCACCCAUGUCUCUGUUGUUUCGUG [salish99_SSNG1_r04_939] (Eterna round: R96, puzzle: Same State NG 1)”, the “apparent KD of MS2 coat protein” value [1, 3] was 0.0347 µM.

“ACCCGCGGGCCACAUGAGGAUCACCCAUGUGACCGGUGAUCCAAGGAUAUACGUGUCAUUGACGCGUAGAAGGUGGCCAAAACA [Ersooned] (Eterna round: R96, puzzle: Same State NG 3)” was tested, and the “apparent KD of MS2 coat protein” value ([1]; input ligand: FMN 200 uM) was 0.0492 µM, the “apparent KD of MS2 coat protein” value [1, 3] was 0.0227 µM and the “apparent KD of MS2 coat protein” value ([1]; input ligand: none) was 0.0288 µM.

For “UAUUGUUCCUGAGGAUAUCAGUUGUUUGCAUUAUGAGAAGGCAGUACAUGAGGAUCACCCAUGUUGGGAUUUGAUAGAAUGAUA [JR_SSNG1_Sub007] (Eterna round: R96, puzzle: Same State NG 1)”, the “apparent KD of MS2 coat protein” value [1, 3] was 0.133 µM.

In the case of “GGCACAAAAGCACAGGAUAUGCAAAAGAACACAUGAGGAUCACCCAUGUAGCCUAAUAAAGGGCAGCAGAAGGGUGGGACUGCCA [Quaat] (puzzle: Same State 2)”, the “apparent KD of MS2 coat protein” value [1, 4] is reported as 0.0745 µM, the “apparent KD of MS2 coat protein” value [1, 5] is reported as 0.239 µM and the “apparent KD of MS2 coat protein” value [1, 6] is reported as 0.239 µM.

“GGAGGACAUGAGGAUCACCCAUGUGGAUGAUCGCUAGGAUAUGCGUGCGGGAGGAGUGGUGCAGAAGGAGUGGGAU [JR_SS1_Sub049] (puzzle: Same State 1)” was tested, and the “apparent KD of MS2 coat protein” value [1, 5] was 0.188 µM.

With “UGAACCGUCACAGGAUAUCAUGCGAAAAUUGCGUGAGAAGGGUGGAUGUUGUGCUCAAAGUUCUACAUGAGGAUCACCCAUGUU [SameState NG1 #44] (Eterna round: R96, puzzle: Same State NG 1)” the “apparent KD of MS2 coat protein” value ([1]; input ligand: FMN 200 uM) was 0.0619 µM, the “apparent KD of MS2 coat protein” value [1, 3] was 0.0335 µM and the “apparent KD of MS2 coat protein” value ([1]; input ligand: none) was 0.0605 µM.

For “AGCUAUUACGAAGGAUAUAGUAACAUGAGGAUCACCCAUGUUUACAUGAUUAAUUGUGAUCACGUCUAGAAGGUUGUACUAACA [SameState NG2 #34] (Eterna round: R96, puzzle: Same State NG 2)”, the “apparent KD of MS2 coat protein” value ([1]; input ligand: FMN 200 uM) was 0.0331 µM, the “apparent KD of MS2 coat protein” value [1, 3] was 0.0302 µM and the “apparent KD of MS2 coat protein” value ([1]; input ligand: none) was 0.0371 µM.

For “UCUUGGUUUUUGCUCGUUUUUUGUGUUGAACAUGAGGAUCACCCAUGUAUUGUACGAUCCGAUUUAAUAAUGGUCCG [JMF 62] (puzzle: Sensor for hsa-mir-208a)”, the “apparent KD of MS2 coat protein” value [1, 4] was 0.0632 µM, the “apparent KD of MS2 coat protein” value [1, 5] was 0.0557 µM and the “apparent KD of MS2 coat protein” value [1, 6] was 0.0831 µM.

“GAGAGAGGGUGAGGAUAUUCAGUAAUAAUGAUAGAAGAAGGCACAGACAUGAGGAUCACCCAUGUGGGAAUAAUCCAGAGAGAG [Parity 3 - Jieux - Same State NG 1] (Eterna round: R96, puzzle: Same State NG 1)” was tested, and the “apparent KD of MS2 coat protein” value [1, 3] was 0.158 µM.

For “UGGCUCAGAGCAGGAUAUACGUGGUCACAUGAGGAUCACCCAUGUCUCGAGCUUCGGCUCGAGGCGUAGAAGGGCUCUGAGCCA [SSNG2/6-B2] (Eterna round: R96, puzzle: Same State NG 2)”, the “apparent KD of MS2 coat protein” value ([1]; input ligand: FMN 200 uM) was 0.11 µM, the “apparent KD of MS2 coat protein” value [1, 3] was 0.187 µM and the “apparent KD of MS2 coat protein” value ([1]; input ligand: none) was 0.305 µM.

In the case of “GCUCGACGUUCGGCCUACAUGAGGAUCACCCAUGUGACUGGGCAGGAUAUCUAAAUGCAGAAUGUAGAGAAGGGCCCGUCGAGC [SameState NG3 #51] (Eterna round: R96, puzzle: Same State NG 3)”, the “apparent KD of MS2 coat protein” value ([1]; input ligand: FMN 200 uM) is reported as 0.168 µM, the “apparent KD of MS2 coat protein” value [1, 3] is reported as 0.0434 µM and the “apparent KD of MS2 coat protein” value ([1]; input ligand: none) is reported as 0.19 µM.

In the case of “GGAAUAUGAUGUUACAUGAGGAUCACCCAUGUAGUAAUAACUAAGGAUAUCUGAAAAGGAGGAGAAGAGAAGGUAGGAUCAUAA [AK SSNG3-V2-10.1] (Eterna round: R96, puzzle: Same State NG 3)”, the “apparent KD of MS2 coat protein” value ([1]; input ligand: FMN 200 uM) is reported as 0.0133 µM, the “apparent KD of MS2 coat protein” value [1, 3] is reported as 0.0225 µM and the “apparent KD of MS2 coat protein” value ([1]; input ligand: none) is reported as 0.0333 µM.

In the case of “ACAUGAGGGUGAGGAUAUUGGAACUCACCUGACAUGAGGAUCACCCAUGUUCAAUGAGGAUCACCCAAGAAGGCACGUUGUGGA [Same State NG2 S3] (Eterna round: R96, puzzle: Same State NG 2)”, the “apparent KD of MS2 coat protein” value ([1]; input ligand: FMN 200 uM) is reported as 0.0292 µM, the “apparent KD of MS2 coat protein” value [1, 3] is reported as 0.024 µM and the “apparent KD of MS2 coat protein” value ([1]; input ligand: none) is reported as 0.0362 µM.

For “GCCAUCGCAUGAGGAUAUGGCACCGAAACGGUGCCAGAAGGCAUGUCGAAAGACAUGAGGAUCACCCAUGUAGUAUAGAUGGCA [Mat - Same State NG 1 - JL mod - D93] (Eterna round: R96, puzzle: Same State NG 1)”, the “apparent KD of MS2 coat protein” value ([1]; input ligand: FMN 200 uM) was 0.222 µM, the “apparent KD of MS2 coat protein” value [1, 3] was 0.228 µM and the “apparent KD of MS2 coat protein” value ([1]; input ligand: none) was 0.9 µM.

With “UGACAUUGCUCAGAUACCAGACGUGAGGAUCACCCACGUGCCAACAUGAGGAUCACCCAUGUCCCUUGGCAGCUGAGCAAUGUCU” the “apparent KD of MS2 coat protein” value ([2]; input ligand: arginine 13.2 mM) was 0.0128 µM, the “apparent KD of MS2 coat protein” value [2, 7] was 0.0241 µM and the “apparent KD of MS2 coat protein” value [2, 8] was 0.0155 µM.

“UCAUUUUUCACGGCCGCCACUUCAAGGUCCUGAGGCUGGGCAACACAUGAGGAUCACCCAUGUCGAAGGACCGGGUGAAGCUACC [theeternabot_sameState_MS2_Trp_B_34]” was tested, and the “apparent KD of MS2 coat protein” value ([2]; input ligand: arginine 13.2 mM) was 0.152 µM, the “apparent KD of MS2 coat protein” value [2, 7] was 0.248 µM and the “apparent KD of MS2 coat protein” value [2, 9] was 0.527 µM.

“ACAUGAGGAUCACCCAUGUGAAGCAGGGUACGAGGACCGGUACGGCCGCCACUCGAGGAUUAUACCGAGUGAAUGGCAACGAUGU [whbob_Ex_trypto A_2s18]” was tested, and the “apparent KD of MS2 coat protein” value ([2]; input ligand: arginine 13.2 mM) was 0.0132 µM, the “apparent KD of MS2 coat protein” value ([2]; input ligand: none) was 0.0141 µM and the “apparent KD of MS2 coat protein” value [2, 7] was 0.0218 µM. For the same sequence, the “apparent KD of MS2 coat protein” value [2, 9] was 0.0178 µM and the “apparent KD of MS2 coat protein” value [2, 8] was 0.0152 µM.
